{"source": "paper PMC7291361", "about": "(ACS infectious diseases, 2020)", "binders": {"B1": {"name": "K03.12 IgG (antibody, V domains shown)", "VH": "QVQLVQSGAEVKKPGASVKVSCKTSGYTFTAYYLHWVRQAPGQGFEWMAWINPNTGDTNYAQKFQGRVTLSRDTSITTAYMELTRLRSDDTAVYYCAKDLTLMYVFDSGWARGAHDYYGMDVWGQGTTVAVSG", "VL": "PSALTQPASVSGSPGQSVTISCTGTNSDVGTFDLVSWYQQYPGKAPKLIIYEGSRRPSGVSDRFSGSKSGNTASLTISGLQAEDEADYYCSSYAGSVVFGGGTKLTVL"}}, "target": "H1 SI-06 HA FLsE (Influenza A virus A/Solomon …, UniProt A7UPX0, strain)", "assay": "ELISA", "data": [{"binder": "B1", "values": [{"measurement": "binding result", "value": "binds"}]}]}
